B1: E3 ubiquitin-protein ligase RFWD3 (Homo sapiens), Q6PCD5 (parent)
chain: MAHEAMEYDVQVQLNHAEQQPAPAGMASSQGGPALLQPVPADVVSSQGVPSILQPAPAEVISSQATPPLLQPAPQLSVDLTEVEVLGEDTVENINPRTSEQHRQGSDGNHTIPASSLHSMTNFISGLQRLHGMLEFLRPSSSNHSVGPMRTRRRVSASRRARAGGSQRTDSARLRAPLDAYFQVSRTQPDLPATTYDSETRNPVSEELQVSSSSDSDSDSSAEYGGVVDQAEESGAVILEEQLAGVSAEQEVTCIDGGKTLPKQPSPQKSEPLLPSASMDEEEGDTCTICLEQWTNAGDHRLSALRCGHLFGYRCISTWLKGQVRKCPQCNKKARHSDIVVLYARTLRALDTSEQERMKSSLLKEQMLRKQAELESAQCRLQLQVLTDKCTRLQRRVQDLQKLTSHQSQNLQQPRGSQAWVLSCSPSSQGQHKHKYHFQKTFTVSQAGNCRIMAYCDALSCLVISQPSPQASFLPGFGVKMLSTANMKSSQYIPMHGKQIRGLAFSSYLRGLLLSASLDNTIKLTSLETNTVVQTYNAGRPVWSCCWCLDEANYIYAGLANGSILVYDVRNTSSHVQELVAQKARCPLVSLSYMPRAASAAFPYGGVLAGTLEDASFWEQKMDFSHWPHVLPLEPGGCIDFQTENSSRHCLVTYRPDKNHTTIRSVLMEMSYRLDDTGNPICSCQPVHTFFGGPTCKLLTKNAIFQSPENDGNILVCTGDEAANSALLWDAASGSLLQDLQTDQPVLDICPFEVNRNSYLATLTEKMVHIYKWE

Variants of: B1
Details: with rfa2_human RPA2, P15927
Sequence of rfa2_human RPA2, P15927 (P15927 whole entry): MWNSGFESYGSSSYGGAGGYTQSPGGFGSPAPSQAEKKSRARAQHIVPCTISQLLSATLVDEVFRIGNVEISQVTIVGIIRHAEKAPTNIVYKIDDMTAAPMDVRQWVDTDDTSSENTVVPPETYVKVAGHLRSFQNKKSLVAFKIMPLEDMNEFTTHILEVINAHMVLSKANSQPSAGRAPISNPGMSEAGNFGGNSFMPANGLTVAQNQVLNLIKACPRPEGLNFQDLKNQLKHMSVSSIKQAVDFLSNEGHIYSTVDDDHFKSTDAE

| effect of a mutation on the interaction | Variant |
| --- | --- |
| decreasing interaction strength | I639K |

Variants of: B1
Details: with rfa2_human RPA2, P15927
Remark: another data set of the same source

| effect of a mutation on the interaction | Variant |
| --- | --- |
| disrupting interaction strength | I639K |

Reference: IntAct's records for PubMed 28691929
